# Results published in US20090142372A1.
# Assays:
# [1] = target: vBSP-2 anchored on carrier bacteria (human; Listeria monocytogenes) (UniProt P21815); test: flow cytometry of carrier bacteria displaying vBSP-2, after deactivation
# [2] = target: fusion peptide of pIUSind-mBSP6x anchored on Listeria (human; Listeria monocytogenes); test: flow cytometry of deactivated carrier bacteria displaying the 6-fold multimer (FIG. 11; rabbit tumor eBSP antiserum)
# [3] = target: vBSP-2 anchored on carrier bacteria (human; Listeria monocytogenes) (UniProt P21815); test: flow cytometry of carrier bacteria displaying vBSP-2, before deactivation
# [4] = target: fusion peptide of pIUSind-mBSP4x anchored on Listeria (human; Listeria monocytogenes) (UniProt Q723K6); test: flow cytometry of deactivated carrier bacteria displaying the 4-fold multimer (FIG. 11; rabbit tumor eBSP antiserum)
# [5] = target: vBSP-3 anchored on carrier bacteria (human; Listeria monocytogenes) (UniProt P21815); test: flow cytometry of carrier bacteria displaying vBSP-3, grown in BHI and minimal media, before deactivation (FIG. 4A and B)
# [6] = target: fusion peptide of pIUSind-mBSP6x anchored on Listeria (human; Listeria monocytogenes); test: flow cytometry of carrier bacteria displaying the eBSP 6-fold multimer, before deactivation
# [7] = target: vBSP-3 anchored on carrier bacteria (human; Listeria monocytogenes) (UniProt P21815); test: flow cytometry of carrier bacteria displaying vBSP-3, before deactivation
# [8] = target: fusion peptide of pIUSind-mBSP5x anchored on Listeria (human; Listeria monocytogenes); test: flow cytometry of deactivated carrier bacteria displaying the 5-fold multimer (FIG. 11; rabbit tumor eBSP antiserum)
# [9] = target: fusion peptide of pIUSind-mBSP5x anchored on Listeria (human; Listeria monocytogenes); test: flow cytometry of carrier bacteria displaying eBSP pentamer, BHI and minimal medium (FIG. 9, 10; tumor-epitope specific rabbit antibodies)
# [10] = target: fusion peptide of pIUSind-mBSP1x anchored on Listeria (human; Listeria monocytogenes) (UniProt Q723K6); test: flow cytometry of carrier bacteria displaying eBSP monomer, BHI and minimal medium (FIG. 9, 10; tumor-epitope specific rabbit antibodies)
# [11] = target: vBSP-3 anchored on carrier bacteria (human; Listeria monocytogenes) (UniProt P21815); test: flow cytometry of deactivated carrier bacteria displaying vBSP-3, grown in minimal medium (FIG. 5B)
# [12] = target: vBSP-4 anchored on carrier bacteria (human; Listeria monocytogenes) (UniProt P21815); test: flow cytometry of carrier bacteria displaying vBSP-4, after deactivation
# [13] = target: fusion peptide of pIUSind-mBSP3x anchored on Listeria (human; Listeria monocytogenes) (UniProt Q723K6); test: flow cytometry of deactivated carrier bacteria displaying the 3-fold multimer (FIG. 11; rabbit tumor eBSP antiserum)
# [14] = target: fusion peptide of pIUSind-mBSP5x anchored on Listeria (human; Listeria monocytogenes); test: flow cytometry of carrier bacteria displaying the eBSP 5-fold multimer, before deactivation
# [15] = target: vBSP-4 anchored on carrier bacteria (human; Listeria monocytogenes) (UniProt P21815); test: flow cytometry of carrier bacteria displaying vBSP-4, before deactivation
# [16] = target: eBSP tumor epitope fused to a bacterial carrier protein, anchored on carrier bacteria (human; Listeria monocytogenes); test: flow cytometry of carrier bacteria displaying the eBSP-carrier fusion (FIG. 7B)
# [17] = target: vBSP-3 anchored on carrier bacteria (human; Listeria monocytogenes) (UniProt P21815); test: flow cytometry of carrier bacteria displaying vBSP-3, after deactivation
# [18] = target: fusion peptide of pIUSind-mBSP5x anchored on Listeria (human; Listeria monocytogenes); test: flow cytometry of carrier bacteria displaying the eBSP 5-fold multimer, after deactivation
# [19] = target: fusion peptide of pIUSind-mBSP6x anchored on Listeria (human; Listeria monocytogenes); test: flow cytometry of carrier bacteria displaying the eBSP 6-fold multimer, after deactivation
substance,measurement,setting,value
"Anti-Human Bone Sialoprotein (amino acids 108-122) Antibody, polyclonal antiserum, Immundiagnostik AG, Cat.-No. A4219.2, Lot H3150503",anchoring efficiency (proportion of positive bacteria in FACS),[1],65%
same,anchoring efficiency (proportion of positive bacteria in FACS),[2],> 40%
same,anchoring efficiency (proportion of positive bacteria in FACS),[3],58.4%
same,anchoring efficiency (proportion of positive bacteria in FACS),[4],> 40%
same,anchoring efficiency (proportion of positive bacteria in FACS),[5],> 52%
same,anchoring efficiency (proportion of positive bacteria in FACS),[6],34.2%
same,anchoring efficiency (proportion of positive bacteria in FACS),[7],52.3%
same,anchoring efficiency (proportion of positive bacteria in FACS),[8],> 40%
same,anchoring efficiency (proportion of positive bacteria in FACS),[9],> 40%
same,anchoring efficiency (proportion of positive bacteria in FACS),[10],< 10%
same,anchoring efficiency (proportion of positive bacteria in FACS),[11],41%
same,anchoring efficiency (proportion of positive bacteria in FACS),[12],67.8%
same,anchoring efficiency (proportion of positive bacteria in FACS),[13],> 40%
same,anchoring efficiency (proportion of positive bacteria in FACS),[14],42.5%
same,anchoring efficiency (proportion of positive bacteria in FACS),[15],57.8%
same,anchoring efficiency (proportion of positive bacteria in FACS),[16],6 to 7%
same,anchoring efficiency (proportion of positive bacteria in FACS),[17],63.9%
same,anchoring efficiency (proportion of positive bacteria in FACS),[18],40.1%
same,anchoring efficiency (proportion of positive bacteria in FACS),[19],46.5%
